Data as given in US20100173430A1.

Key:
[1] = target: human IgG (Sigma) (human); assay: SPR (BIAcore); protein G layer on gold thin film, human IgG 100 ug/ml injected
[2] = target: anti-human Kallikrein 3/PSA antibody (R&D systems); assay: SPR (BIAcore); protein G layer on gold thin film, anti-PSA antibody 0.5 ug/ml injected

change in surface plasmon resonance signal [1]: 1000 RU
change in surface plasmon resonance signal [2]: 114 RU
Substance: untagged Streptococcal protein G variant recombinant protein (B1 and B2 domains, not tagged with cysteine) (from UniProt P19909 313-497)
